Read-outs that look alike come from different tables or passages of the source. Where no end group is shown, it is not given here. The star is where a group is joined. C16 diacid = O=C(O)CCCCCCCCCCCCCCC(=O)*
Tests used:
human GIP receptor [1] = target: T1, human GIP receptor (human, UniProt P48546 22-466); test: cell-based or functional assay
T1 sequence (looked up): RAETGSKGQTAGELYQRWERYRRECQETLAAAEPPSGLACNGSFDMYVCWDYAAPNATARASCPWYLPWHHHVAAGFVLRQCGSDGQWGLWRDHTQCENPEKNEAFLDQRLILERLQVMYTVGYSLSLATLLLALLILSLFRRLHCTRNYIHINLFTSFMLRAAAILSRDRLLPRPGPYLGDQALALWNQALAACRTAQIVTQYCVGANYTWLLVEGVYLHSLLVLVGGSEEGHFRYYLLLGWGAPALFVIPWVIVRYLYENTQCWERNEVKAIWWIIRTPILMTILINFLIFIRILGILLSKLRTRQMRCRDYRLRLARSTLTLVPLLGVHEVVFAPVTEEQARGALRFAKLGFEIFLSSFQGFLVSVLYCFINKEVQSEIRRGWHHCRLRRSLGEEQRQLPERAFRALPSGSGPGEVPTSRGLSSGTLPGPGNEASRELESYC

human GIP receptor [2] = target: T1, human GIP receptor; test: cell-based or functional assay; remark: listed apart in the source

| Binder | cAMP agonism Emax (human GIP receptor [1]) | cAMP antagonism (human GIP receptor [1]) | cAMP antagonism % inhib (human GIP receptor [1]) | cAMP antagonism log (human GIP receptor [1]) | cAMP agonism % Emax (human GIP receptor [2]) | cAMP antagonism (human GIP receptor [2]) | cAMP antagonism % inhib (human GIP receptor [2]) | cAMP antagonism pIC50 (human GIP receptor [2]) |
| --- | --- | --- | --- | --- | --- | --- | --- | --- |
| EGTFISDYSIAMDKIK(C16 diacid)QQDFVNWLLAQKGPSSGAPP-OH (N-terminus assumed; SMILES CC[C@H](C)[C@H](NC(=O)[C@H](CO)NC(=O)[C@H](Cc1ccc(O)cc1)NC(=O)[C@H](CC(=O)O)NC(=O)[C@H](CO)NC(=O)[C@@H](NC(=O)[C@H](Cc1ccccc1)NC(=O)[C@@H](NC(=O)CNC(=O)[C@@H](N)CCC(=O)O)[C@@H](C)O)[C@@H](C)CC)C(=O)N[C@@H](C)C(=O)N[C@@H](CCSC)C(=O)N[C@@H](CC(=O)O)C(=O)N[C@@H](CCCCN)C(=O)N[C@H](C(=O)N[C@@H](CCCCNC(=O)CCCCCCCCCCCCCCC(=O)O)C(=O)N[C@@H](CCC(N)=O)C(=O)N[C@@H](CCC(N)=O)C(=O)N[C@@H](CC(=O)O)C(=O)N[C@@H](Cc1ccccc1)C(=O)N[C@H](C(=O)N[C@@H](CC(N)=O)C(=O)N[C@@H](Cc1c[nH]c2ccccc12)C(=O)N[C@@H](CC(C)C)C(=O)N[C@@H](CC(C)C)C(=O)N[C@@H](C)C(=O)N[C@@H](CCC(N)=O)C(=O)N[C@@H](CCCCN)C(=O)NCC(=O)N1CCC[C@H]1C(=O)N[C@@H](CO)C(=O)N[C@@H](CO)C(=O)NCC(=O)N[C@@H](C)C(=O)N1CCC[C@H]1C(=O)N1CCC[C@H]1C(=O)O)C(C)C)[C@@H](C)CC) [AT468] | 4.6 | 13 nM | 95% | -7.9 log M | 0% | 12.6 nM | 92% | 7.9 |
| EGTFISDYSIAMDKIK(C16 diacid)QQDFVNWLLAQKGPSSGAP-OH (N-terminus assumed; SMILES CC[C@H](C)[C@H](NC(=O)[C@H](CO)NC(=O)[C@H](Cc1ccc(O)cc1)NC(=O)[C@H](CC(=O)O)NC(=O)[C@H](CO)NC(=O)[C@@H](NC(=O)[C@H](Cc1ccccc1)NC(=O)[C@@H](NC(=O)CNC(=O)[C@@H](N)CCC(=O)O)[C@@H](C)O)[C@@H](C)CC)C(=O)N[C@@H](C)C(=O)N[C@@H](CCSC)C(=O)N[C@@H](CC(=O)O)C(=O)N[C@@H](CCCCN)C(=O)N[C@H](C(=O)N[C@@H](CCCCNC(=O)CCCCCCCCCCCCCCC(=O)O)C(=O)N[C@@H](CCC(N)=O)C(=O)N[C@@H](CCC(N)=O)C(=O)N[C@@H](CC(=O)O)C(=O)N[C@@H](Cc1ccccc1)C(=O)N[C@H](C(=O)N[C@@H](CC(N)=O)C(=O)N[C@@H](Cc1c[nH]c2ccccc12)C(=O)N[C@@H](CC(C)C)C(=O)N[C@@H](CC(C)C)C(=O)N[C@@H](C)C(=O)N[C@@H](CCC(N)=O)C(=O)N[C@@H](CCCCN)C(=O)NCC(=O)N1CCC[C@H]1C(=O)N[C@@H](CO)C(=O)N[C@@H](CO)C(=O)NCC(=O)N[C@@H](C)C(=O)N1CCC[C@H]1C(=O)O)C(C)C)[C@@H](C)CC) [AT469] |  | 3 nM | 90% | -8.5 log M | 0% | 3.8 nM | 93% | 8.4 |
| EGTFISDYSIAMDKIK(C16 diacid)QQDFVNWLLAQKGPSSGA-OH (N-terminus assumed; SMILES CC[C@H](C)[C@H](NC(=O)[C@H](CO)NC(=O)[C@H](Cc1ccc(O)cc1)NC(=O)[C@H](CC(=O)O)NC(=O)[C@H](CO)NC(=O)[C@@H](NC(=O)[C@H](Cc1ccccc1)NC(=O)[C@@H](NC(=O)CNC(=O)[C@@H](N)CCC(=O)O)[C@@H](C)O)[C@@H](C)CC)C(=O)N[C@@H](C)C(=O)N[C@@H](CCSC)C(=O)N[C@@H](CC(=O)O)C(=O)N[C@@H](CCCCN)C(=O)N[C@H](C(=O)N[C@@H](CCCCNC(=O)CCCCCCCCCCCCCCC(=O)O)C(=O)N[C@@H](CCC(N)=O)C(=O)N[C@@H](CCC(N)=O)C(=O)N[C@@H](CC(=O)O)C(=O)N[C@@H](Cc1ccccc1)C(=O)N[C@H](C(=O)N[C@@H](CC(N)=O)C(=O)N[C@@H](Cc1c[nH]c2ccccc12)C(=O)N[C@@H](CC(C)C)C(=O)N[C@@H](CC(C)C)C(=O)N[C@@H](C)C(=O)N[C@@H](CCC(N)=O)C(=O)N[C@@H](CCCCN)C(=O)NCC(=O)N1CCC[C@H]1C(=O)N[C@@H](CO)C(=O)N[C@@H](CO)C(=O)NCC(=O)N[C@@H](C)C(=O)O)C(C)C)[C@@H](C)CC) [AT470] |  | 14 nM | 100% | -7.8 log M | 0% | 20 nM | 91% | 7.7 |

Source: patent US20220298218A1 (ANTAG THERAPEUTICS, published 2022)
